Test [1] deals with human CD276 protein (human) (UniProt Q5ZPR3). The test is described as follows: cell-based or functional assay.
The target is the same in test [2]. Briefly: FACS on SKOV3 cells.
The target in test [3] is T1, HUMAN B7H3 (Biacore analyte) (human) (UniProt Q5ZPR3).
T1 sequence (looked up): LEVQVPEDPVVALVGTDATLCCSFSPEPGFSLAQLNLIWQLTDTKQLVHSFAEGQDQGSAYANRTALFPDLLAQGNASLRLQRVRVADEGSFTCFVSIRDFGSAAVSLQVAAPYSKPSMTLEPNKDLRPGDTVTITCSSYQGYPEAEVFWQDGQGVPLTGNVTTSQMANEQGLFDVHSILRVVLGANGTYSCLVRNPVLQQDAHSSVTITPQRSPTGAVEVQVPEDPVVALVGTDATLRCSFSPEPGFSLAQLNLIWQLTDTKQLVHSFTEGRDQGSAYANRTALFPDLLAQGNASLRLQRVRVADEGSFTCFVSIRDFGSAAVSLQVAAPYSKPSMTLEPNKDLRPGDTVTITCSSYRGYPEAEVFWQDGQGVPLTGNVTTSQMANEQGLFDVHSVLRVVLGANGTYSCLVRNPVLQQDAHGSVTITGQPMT
The test is described as follows: SPR, Biacore 8K, antibody captured, B7H3 as analyte, 1:1 binding. (In general: SPR reads the build-up and loss of mass on a sensor chip optically.)

The target of test [4] is mouse CD276 protein (mouse) (UniProt Q8VE98). Briefly: FACS on CHO-S-mCD276 cells.

The record followed here is patent US20240400689A1.

mouse CD276 protein (mouse), sequence (Q8VE98 29-316): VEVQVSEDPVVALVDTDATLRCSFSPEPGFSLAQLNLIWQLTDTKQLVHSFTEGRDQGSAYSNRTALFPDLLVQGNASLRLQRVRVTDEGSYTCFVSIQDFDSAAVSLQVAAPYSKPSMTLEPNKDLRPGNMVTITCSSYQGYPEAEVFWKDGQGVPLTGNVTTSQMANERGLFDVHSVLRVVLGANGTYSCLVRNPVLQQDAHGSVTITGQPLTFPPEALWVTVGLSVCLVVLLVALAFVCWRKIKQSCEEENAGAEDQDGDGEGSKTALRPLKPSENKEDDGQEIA

B1: Enoblituzumab (antibody, part only; not given: constant regions, V domains shown, not shown: another chain or arm of the molecule)
VH: EVQLVESGGGLVQPGGSLRLSCAASGFTFSSFGMHWVRQAPGKGLEWVAYISSDSSAIYYADTVKGRFTISRDNAKNSLYLQMNSLRDEDTAVYYCGRGRENIYYGSRLDYWGQGTTVTVSS
VL: DIQLTQSPSFLSASVGDRVTITCKASQNVDTNVAWYQQKPGKAPKALIYSASYRYSGVPSRFSGSGSGTDFTLTISSLQPEDFATYYCQQYNNYPFTFGQGTKLEIK
As for B1, in test [1], the EC50 of antibody induced ADCC effect on SKOV3 came to 0.0864 µg/mL; the EC50 of antibody induced CDC effect stood at 7.28 nM; the Top cytotoxicity (%), CDC was determined as 80.1%. In addition, in test [2], the EC50 (commonly the concentration at which the effect is half-maximal) was found to be 0.985 µg/mL and the MFI (Max) was determined as 830. Moreover, in test [3], the Kd (in general, the constant that tells how readily two partners part at equilibrium) is 3.8 nM; the koff (usually a measure of how fast the partners let go of each other) came to 0.000486 s⁻¹; the association rate constant (kon) (in general, the second-order rate constant of association) came out at 128000 M⁻¹ s⁻¹.

B2: 10-B9-D10-A12 (antibody, V domains shown)
VH: EVQLQESGPELVRPGVSVKISCKGSGYTFTDYTMHWVKLSHAKSLEWIGVISTYYGNTNYNQKFKGKATLTVDKSSSTAYMELARLTSEDSAIYYCARASYGSGYGPYYWYFDVWGAGTTVTVSS
VL: DIQMTQSPASLFASVGETVTITCRASEKIYSYLAWYFQKQGKSPQFLVYNANALAEGVPSRFSGSGSGTQFSLKINSLQPEDFGTYYCQHHYGTPVTFGAGSKLELK
B2 showed an FACS MFI in test [4] of 3170.
